In this experiment the target is host plasminogen (Plg), porcine (pig). Briefly: ELISA; microtiter plates coated with 0.8 ug/well Plg in 50 mM carbonate-bicarbonate buffer pH 9.8; His-tagged proteins added at 1 ug/mL; detected with His-tag monoclonal antibody and HRP anti-mouse; OD450.

The substance “truncated rMhp390(425-604) (domain or fragment)” displayed a fold binding activity (OD450) over the negative control rNOD1 of 2.68 fold.
As for “truncated rMhp390(27-247) (domain or fragment)”, the fold binding activity (OD450) over the negative control rNOD1 was found to be 2.56 fold.

For the origin of these results see article PMC12182672.
